Changes are numbered by the printed parent chain.
T1: cynomolgus TL1A (cynomolgus monkey, UniProt G7PRK8 72-251)
T1 construct: also called cyno TL1A; cynomolgus monkey TL1A
T1 sequence: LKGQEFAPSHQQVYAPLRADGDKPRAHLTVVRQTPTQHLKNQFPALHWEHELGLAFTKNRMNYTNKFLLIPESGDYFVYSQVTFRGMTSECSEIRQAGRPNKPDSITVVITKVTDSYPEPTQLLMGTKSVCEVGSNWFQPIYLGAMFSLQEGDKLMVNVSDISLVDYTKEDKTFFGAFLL

T2: human TL1A (human, UniProt O95150 72-251, limits assumed)
T2 construct: The assays name only 'human TL1A protein'; also called huTL1A; Hu TL1A
T2 sequence (looked up): T1 sequence with L39F, V78I

T3: human TL1A (human, UniProt O95150 72-251, limits assumed)
T3 construct: also called huTL1A; TNFSF15
T3 sequence (looked up): T1 sequence with L39F, V78I

B1: anti-TL1A mAb 23B3 (antibody, human IgG1, kappa, N297G, V domains shown)
VH: QVQLQQSGPGLVKPSQTLSLTCVISGDSVSTNSVAWNWIRQSPSRGLEWLGRTYYRSKWYNDYAVSVKSRITINPDTSKNQFSLQLNSVTPEDTAVYYCAREDGDSYYRYGMDVWGQGTTVTVSS
VL: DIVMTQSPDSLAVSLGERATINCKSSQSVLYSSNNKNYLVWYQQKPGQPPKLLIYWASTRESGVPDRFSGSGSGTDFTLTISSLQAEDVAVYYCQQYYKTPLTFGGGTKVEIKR
notes: also called iPS 290043
B2: anti-TL1A mAb 3C6 (antibody, human IgG1, kappa, N297G, V domains shown)
VH: QVQLVESGGGVVQPGRSLRLSCAASGFTFSSYGMHWVRQAPGKGLEWVAVISYDGNNKLYTDSVKGRFTISRDDSKSTLYLQMNSLRAEDTAVYYCARDPTVTLYYYYGMDVWGQGTTVTVSS
VL: DIQMTQSPSSLSASVGDRVTITCRTSQDIRDDLGWYQQKPGKAPKRLIYDASSLQSGVPSRFSGSGSGTEFTLTISSLQPEDFATYYCLQHNSYPPTFGQGTKVEIKR
notes: also called PL-39112; iPS 284112
B3: anti-TL1A mAb 9C8 (antibody, human IgG1, kappa, N297G, V domains shown)
VH: QVQLQESGPGLVKPSETLSLTCTVSGGSISSYFWSWIRQPPGKGLEWIGYIYYSGNTKYNPSLKSRVTISIDTSKNQFSLKLSSVTAADTAVYYCARETGSYYGFDYWGQGTLVTVSS
VL: DIQMTQSPSSLSASVGDRVTITCRASQSINNYLNWYQQRPGKAPKLLIYAASSLQSGVPSRFSGSGSGTDFTLTISSLQPGDFATYYCQQSYSTPRTFGQGTKLEIKR
notes: also called PL-39116; iPS 285412
B4: anti-TL1A mAb 2G11 (antibody, human IgG1, kappa, N297G, V domains shown)
VH: B3 VH with N56S, K58N, I69M, T99I, T112A
VL: B3 VL with R39K, K42I, A51T, T72S, G81E, Y87F, L104V
notes: also called iPS 285396
B5: 60G11 (antibody, human IgG2, lambda, V domains shown)
VL: QSVLTQPPSVSGAPGQRVTISCTGSGSNIGAGYDVHWYQQLPGTAPKLLIYGNSHRPSGIPDRFSGSKSGTSASLAITGLQAEDEADYYCQSYDSSLSGYVFGTGTKVTVLG
V domain: EVQLLESGGGLVQPGGSLRLSCAASGFTFSNYAMNWVRQAPGKGLEWVSVISGRGGSTYYADSVKGRFTISRDNSRNTLYLQMNSLRAEDTAIYYCAKDGYSSAWFFDYWGQGTLITVSS
notes: also called iPS 427493
B6: 58G5 (antibody, human IgG2, lambda, V domains shown)
VH: B5 V domain with N35S, E46Q, R76K, I93V, F106Y, I116V
VL: B5 VL with G26S, I60V
notes: also called iPS 427539
B7: 23B3 VH3 (antibody, human IgG1, kappa, N297G, V domains shown)
VH: EVQLLESGGGLVQPGGSLRLSCAISGDSVSTNSVAWNWIRQAPGKGLEWVSRTYYRSKWYNDYAVSVKGRFTISPDTSKNTFYLQMNSLRAEDTAVYYCAREDGDSYYRYGMDVWGQGTTVTVSS
VL: DIQMTQSPSSLSASVGDRVTITCRSSQSVLYSSNNKNYLVWYQQKPGKVPKLLIYWASTRESGVPSRFSGSGSGTDFTLTISSLQPEDFATYYCQQYYKTPLTFGGGTKVEIKR
notes: also called 23B3 HC3; iPS 325336
B8: 54E5 (antibody, human IgG2, kappa, V domains shown)
VH: QVQLVESGGGVVQPGRSLRLSCAASGFTFSTYGMHWVRQAPGKGLEWVAVIWYDGSNKDYADSVKGRFTVSRDNSRDTLYLQMNSLRAEDTAVYYCAREERDSYYHYGMDVWGQGTTVTVSS
VL: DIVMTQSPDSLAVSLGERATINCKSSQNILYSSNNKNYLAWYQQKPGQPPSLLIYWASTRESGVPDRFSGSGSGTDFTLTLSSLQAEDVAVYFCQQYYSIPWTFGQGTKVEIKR
notes: also called iPS 427576
B9: 56E1 (antibody, human IgG2, kappa, V domains shown)
VH: B8 VH with T28I, T31S
VL: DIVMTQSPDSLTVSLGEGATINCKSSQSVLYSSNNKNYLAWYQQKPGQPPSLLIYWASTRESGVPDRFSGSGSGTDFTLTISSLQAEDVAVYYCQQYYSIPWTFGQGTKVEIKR
notes: also called iPS 427554
B10: 92D3 (antibody, human IgG2, kappa, V domains shown)
VH: QVQLVQSGAEVKKPGASVQVSCKASGYTFTGYYMHWIRQAPGQGLEWLGWIIPNSGGTNYAQKFQGRVTMTRDTSISTAYMELSRLRSDDTAVYYCATGSSWEGFDYWGQGTLVTVSS
VL: DIQMTQSPSSLSASVGDRVTITCRASQSISSYLNWYQQKPGTAPKFLIYGASRLQSGVPSRFSGSGSGTDFTLTISSLQPEDFATYYCQQSDTTPITFGQGTRLEIKR
notes: also called iPS 427564
B11: 91F10_LC2 (antibody, human IgG2, kappa, V domains shown)
VH: B10 VH with V2G, Q19K, K23Q, G31A, I37V, L48M, I52N, Q65R, S100G
VL: B10 VL with T42K, G50A, T93S
notes: also called iPS 427572
B12: 76A4 (antibody, human IgG2, kappa, V domains shown)
VH: QVQLQQSGPGLVKPSQTLSLTCAISGDSVSSNSATWNWIRQSPSRGLEWLGRTYYRSKLYNDYAVSVKSRITINPDTSKNQFSLQLNSVTPEDTAVYYCAREVVAGPRWFDPWGQGTLVTVSS
VL: B3 VL with I29V, N30T, N31S, R39K, A50T, V58I, G81E, Y87F, T97S
notes: also called iPS 427529
B13: 73C2 (antibody, human IgG2, kappa, V domains shown)
VH: B12 VH with N32S, Y55Q, L59W, Y60N, K79R
VL: B3 VL with I29F, N30S, N31S, R39K, K45E, G81E, T85S, Y87F, T97S
notes: also called iPS 427544
B14: 77D12 (antibody, human IgG2, lambda, V domains shown)
VH: QVQLVQSGAEVKKPGASVRVSCKASGYTFTGFYMHWVRQAPGQGLEWMGWINPDSGGTNYAQKFQGRVTMTRDTSISTAYMELSRLRSDDTAVYYCAREGIAVALTYWGQGTLVTVSS
VL: QSVLTQPPSASGTPGQRVTISCSESNSDIGTNAVNWYQQFPGTAPKFLIYSNNKRPSGVPDRFSGSKSGTSASLAISGLQSEDEADYYCATWDDNLNGPLFGGGTKLTVLG
notes: also called iPS 427549
B15: 53D3 (antibody, human IgG2, kappa, V domains shown)
VH: EVQLVESGGGLVKPGGSLRLSCAASEFTFSTYYMSWVRQAPGKGLEWVSSISSSSSFIYYADSVKGRFTISRDNAKNSLYLQMNSLRAEDTAVYYCARDRIAAPGTYYYYGMDVWGQGTTVTVSS
VL: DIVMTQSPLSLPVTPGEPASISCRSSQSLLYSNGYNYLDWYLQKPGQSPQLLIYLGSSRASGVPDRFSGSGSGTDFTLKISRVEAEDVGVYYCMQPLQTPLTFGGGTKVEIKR
notes: also called iPS 427504
B16: 91D7 (antibody, human IgG2, kappa, V domains shown)
VH: QVQLQQWGAGLLKPSETLSLTCAVYGGSFSGYYWSWIRQPPGKGLEWIGEINPVGRTNYKPSLKSRVTISVDTSKNQFSLKLSSVTAADTALYYCARDNGWHYAFDIWGQGTMVTVSS
VL: DIQMTQSPSSLSASVGDRVTITCRASQNISSYLNWYQQRPGKAPNLLLFTASSLQSGVPSRFSGSGSGTDFTLTINSLQPEDFATYYCQQSYSNPPESSFGQGTKLEIKR
notes: also called iPS 427514
B17: 87H11 (antibody, human IgG2, kappa, V domains shown)
VH: B16 VH with V2E, P53H, V54S, K60N, L92V, N99S, Y103F, A104S, G109D
VL: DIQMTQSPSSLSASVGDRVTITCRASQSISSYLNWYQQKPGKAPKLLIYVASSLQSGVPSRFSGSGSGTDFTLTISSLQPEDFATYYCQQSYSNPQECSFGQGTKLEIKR
notes: also called iPS 427534
B18: 88H9 (antibody, human IgG2, kappa, V domains shown)
VH: QVQLVESGAGVVQPGRSLRLSCAASGFTFSSYGMHWVRQAPGMGLEWVAVIWFDGSNEYYADSVKGRFTISRDNSKNTLYLQMNSLRAEDTAVYYCARERWFGELLDYWGQGTLVTVSS
VL: DIQMTQSPSSLSASVGDRVTITCRASQGIRNDLGWYQEKPGKAPKRLIYAASGLQGGDPSRFSGSGSGTEFTLTISSLQPEDFATYYCLQHNSYPTWTFGQGTKVEIKR
notes: also called iPS 427485
B19: 57A8 (antibody, V domains shown)
VH: EIQLLESGGGLVQPGGSLRLSCVASGFTFSSYVMSWVRQAPGKGLEWVSVISGSGGSTYYADSVKGRFTISRDNSKTTLYLQMNSLRAEDTAVYYCAKGGTNYYYYYSGMDVWGQGTTVTVSS
VL: QSVLTQPPSVSGAPGQRVTISCTGSSSNIGAGYNVHWYQQLPGTAPKLLIYGNNNRPSGVPDRFSGSKSGTSASLAITGLQTEDEADYYCQSYDSSLSGWVFGGGTKLTVL
notes: also called iPS 427519
B20: 92E5 (antibody, human IgG2, kappa, V domains shown)
VH: EVHLLESGGGLVQPGGSLRLSCAASGFTFSSYAMSWVRQVPGKGLEWVSGISGRGGSTYYADSVKGRFTISRDNSKNTLYLQMDSLRAEDTAVYNCAIEVAGAFDIWGQGTMVTVSS
VL: DIQMIQSPSSLSASVGDRVTITCRASQSISHYLNWYQQKPGKAPKFLIYAASSLQSGVPSRFSGSGSGTDFTLTISSLQPEDFATYYCQQSFSSITFGQGTRLEIKR
notes: also called iPS 427559
B21: 89H9 (antibody, human IgG2, kappa, V domains shown)
VH: B20 VH with V40A, R54G, D84N, D90N, N95Y, V100M
VL: B20 VL with R18S, H31Y, F92Y
notes: also called iPS 427509
B22: 91G8 (antibody, human IgG2, kappa, V domains shown)
VH: B20 VH with H3Q, A23V, V40A, R54S, T58R, D84N, N95Y
VL: B20 VL with H31S, S94T
notes: also called iPS 427524
B23: anti-TL1A Fab 9C8 (Fab, V domains shown)
VH: B3 VH
VL: DIQMTQSPSSLSASVGDRVTITCRASQSINNYLNWYQQRPGKAPKLLIYAASSLQSGVPSRFSGSGSGTDFTLTISSLQPGDFATYYCQQSYSTPRTFGQGTKLEIK
notes: Fab fragment; the Fab's constant parts are not; also called 9C8 Fab; PL-39197
B24: anti-TL1A Fab 2G11 (Fab, V domains shown)
VH: B3 VH with N56S, K58N, I69M, T99I, T112A
VL: B23 VL with R39K, K42I, A51T, T72S, G81E, Y87F, L104V
notes: Fab fragment; the Fab's constant parts are not; also called 2G11 Fab; PL-38025

target: T1, cynomolgus TL1A; experiment: SPR, mAb captured on anti-human Fc chip, TL1A injected, 1:1 model
Method: (§1) On rate, off rate and equilibrium dissociation constant were calculated using 1:1 binding model on BIAevaluation software.

Row | Kd [nM] | koff [s⁻¹] | kon [M⁻¹ s⁻¹] | Binder
1 | 1.4 | 0.00032 | 230000 | B1
2 | 2.4 | 0.0014 | 570000 | B2

target: T2, human TL1A; experiment: as above
Method: as §1

Row | Kd [nM] | koff [s⁻¹] | kon [M⁻¹ s⁻¹] | Binder
3 | 0.89 | 0.00042 | 470000 | B1
4 | < 0.1 | < 5e-05 |  | B2
5 | 0.34 |  |  | B3
6 | 1.1 |  |  | B4

target: T3, human TL1A; experiment: hybridoma screening after immunisation with recombinant human TL1A soluble protein; member named through Tables A, C and D

Row | binding result | Binder
7 | binds | B5
8 | binds | B6
9 | binds | B7
10 | binds | B8
11 | binds | B9
12 | binds | B10
13 | binds | B11
14 | binds | B12
15 | binds | B13
16 | binds | B14
17 | binds | B15
18 | binds | B16
19 | binds | B17
20 | binds | B18
21 | binds | B19
22 | binds | B20
23 | binds | B21
24 | binds | B22

target: T2, human TL1A; experiment: SPR, Fab captured on anti-huFab chip, TL1A injected, 1:1 model
Method: as §1

Row | Kd [nM] | Binder
25 | < 0.1 | B23
26 | < 0.3 | B24

target: T1, cynomolgus TL1A; experiment: cell-based or functional assay

Row | NF-kB IC50 nM, cyno TL1A (2 nM) [nM] | Binder
27 | 0.619 | B1
28 | > 100 | B2

target: T2, human TL1A; experiment: cell-based or functional assay

Row | NF-kB IC50 nM, huTL1A (0.2 nM) [nM] | Binder
29 | 0.089 | B1
30 | 0.153 | B2
31 | 0.131 | B3
32 | 2.43 | B23
33 | 0.223 | B4
34 | 0.551 | B24

From patent US20190119407A1 (Amgen, published 2019)
